Legend:
JASPer = target: T1, JASPer (Drosophila melanogaster, UniProt Q9VAA9 1-475); assay: EMSA; 70 nM DNA; 9-fold molar excess of JASPer shifts all DNA; at least three retarded bands; DNA EMSA: 50 mM HEPES pH 7.6, 50 mM NaCl, 10% glycerol, 2 mM MgCl2, 10% BSA, RT 10 min; RNA EMSA: 25 mM HEPES pH 7.6, 100 mM KCl, 3 mM MgCl2, 1 mM DTT, 5% glycerol, 100 ug/mL yeast tRNA, 20 C 15 min; nucleosome pull-down: 20 mM Tris/Cl pH 7.5, 50 mM NaCl, 5 mM EDTA, 0.1% Tween 20, 4 C 4 h; conditions: protein: recombinant; tags: C-terminal FLAG; label: Cy5; blunt
T1 sequence: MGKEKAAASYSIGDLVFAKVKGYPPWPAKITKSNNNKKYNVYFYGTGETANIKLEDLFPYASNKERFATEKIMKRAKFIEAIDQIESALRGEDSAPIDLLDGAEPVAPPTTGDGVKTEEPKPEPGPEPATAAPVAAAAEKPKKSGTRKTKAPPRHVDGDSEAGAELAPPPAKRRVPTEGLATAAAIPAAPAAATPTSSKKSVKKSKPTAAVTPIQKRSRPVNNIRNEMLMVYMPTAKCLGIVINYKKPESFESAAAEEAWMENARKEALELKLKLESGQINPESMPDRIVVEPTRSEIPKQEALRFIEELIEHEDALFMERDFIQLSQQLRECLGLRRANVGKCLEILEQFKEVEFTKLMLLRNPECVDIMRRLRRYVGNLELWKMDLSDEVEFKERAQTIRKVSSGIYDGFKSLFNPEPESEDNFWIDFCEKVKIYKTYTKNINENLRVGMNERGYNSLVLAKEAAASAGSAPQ

JIL-1 = target: T2, JIL-1 (Drosophila melanogaster, UniProt Q9V3I5 1-1207); assay: EMSA; 70 nM DNA; DNA EMSA: 50 mM HEPES pH 7.6, 50 mM NaCl, 10% glycerol, 2 mM MgCl2, 10% BSA, RT 10 min; RNA EMSA: 25 mM HEPES pH 7.6, 100 mM KCl, 3 mM MgCl2, 1 mM DTT, 5% glycerol, 100 ug/mL yeast tRNA, 20 C 15 min; nucleosome pull-down: 20 mM Tris/Cl pH 7.5, 50 mM NaCl, 5 mM EDTA, 0.1% Tween 20, 4 C 4 h; conditions: protein: recombinant; tags: N-terminal FLAG; label: Cy5; blunt
T2 sequence: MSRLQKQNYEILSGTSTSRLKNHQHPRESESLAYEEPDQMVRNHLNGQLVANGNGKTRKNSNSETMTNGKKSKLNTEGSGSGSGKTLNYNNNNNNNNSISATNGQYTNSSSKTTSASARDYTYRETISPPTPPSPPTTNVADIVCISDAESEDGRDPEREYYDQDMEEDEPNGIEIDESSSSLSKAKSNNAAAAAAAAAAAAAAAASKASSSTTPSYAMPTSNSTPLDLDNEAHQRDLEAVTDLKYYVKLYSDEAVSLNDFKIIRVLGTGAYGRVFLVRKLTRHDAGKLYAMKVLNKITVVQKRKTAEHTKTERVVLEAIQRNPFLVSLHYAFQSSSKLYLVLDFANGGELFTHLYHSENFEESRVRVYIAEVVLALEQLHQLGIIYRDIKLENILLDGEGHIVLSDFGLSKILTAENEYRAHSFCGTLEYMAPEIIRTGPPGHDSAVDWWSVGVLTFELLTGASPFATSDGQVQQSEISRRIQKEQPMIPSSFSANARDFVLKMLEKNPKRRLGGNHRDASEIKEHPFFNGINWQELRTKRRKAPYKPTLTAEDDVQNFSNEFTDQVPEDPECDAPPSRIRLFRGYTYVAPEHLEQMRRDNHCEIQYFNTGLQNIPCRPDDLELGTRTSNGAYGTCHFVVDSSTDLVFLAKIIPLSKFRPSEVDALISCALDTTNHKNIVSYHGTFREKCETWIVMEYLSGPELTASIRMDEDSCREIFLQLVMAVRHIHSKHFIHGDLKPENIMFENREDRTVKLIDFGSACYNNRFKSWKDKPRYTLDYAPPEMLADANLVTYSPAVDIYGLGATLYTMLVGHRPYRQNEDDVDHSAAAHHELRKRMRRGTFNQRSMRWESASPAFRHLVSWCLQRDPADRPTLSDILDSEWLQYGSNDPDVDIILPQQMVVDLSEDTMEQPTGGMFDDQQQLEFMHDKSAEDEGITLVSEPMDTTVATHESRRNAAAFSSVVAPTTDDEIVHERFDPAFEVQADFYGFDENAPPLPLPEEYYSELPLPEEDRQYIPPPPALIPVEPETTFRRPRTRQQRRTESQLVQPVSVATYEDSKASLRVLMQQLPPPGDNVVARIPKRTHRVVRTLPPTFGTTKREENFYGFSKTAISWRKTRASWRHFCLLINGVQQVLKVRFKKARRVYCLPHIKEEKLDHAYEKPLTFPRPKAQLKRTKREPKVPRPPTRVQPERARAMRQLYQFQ

B1: 40 bp dsDNA (end of 601 positioning sequence) (dsDNA)
DNA 1: CCTGGAGAATCCCGGTGCCGAGGCCGCTCAATTGGTCGTA
DNA 2: TACGACCAATTGAGCGGCCTCGGCACCGGGATTCTCCAGG
B1: binds (JASPer); no binding (JIL-1).

Source: publication PMC6877644, “JASPer controls interphase histone H3S10 phosphorylation by chromosomal kinase JIL-1 in Drosophila”
